Assay results reported in article PMC8915792 (Proceedings of the National Academy of Sciences of the …, 2022).

Target: the molecule itself
Experiment: fluorescence polarisation

B1: HaloTag-ABS3 (human talin-1 C-terminal actin-binding domain, residues 2,293 to 2,541, as a HaloTag fusion protein) (domain or fragment)
chain: TEWVDPEDPTVIAENELLGAAAAIEAAAKKLEQLKPRAKPKEADESLNFEEQILEAAKSIAAATSALVKAASAAQRELVAQGKVGAIPANALDDGQWSQGLISAARMVAAATNNLCEAANAAVQGHASQEKLISSAKQVAASTAQLLVACKVKADQDSEAMKRLQAAGNAVKRASDNLVKAAQKAAAFEEQENETVVVKEKMVGGIAQIIAAQEEMLRKERELEEARKKLAQIRQQQYKFLPSELRDEH
- Kd: 1900 ± 200 nM
